Results: the supplement of paper PMC12042874
± gives the uncertainty stated by the source.

experiment: amyloid nucleation score (Sup35N fusion, yeast selection) (log enrichment); library NNK3; higher = more nucleation; inactive = no reads after selection
Method in brief: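 Nucleation score is defined as the DiMSum log enrichment of output over input reads, with centring on the mode score of non-aggregating sequences. A minimum of 100 input reads was required for each sequence. Reads came from Illumina sequencing of plasmid inserts from psi-negative yeast expressing Sup35N fused to peptides of 20 random codons, induced with 100 μM copper sulfate for 24 hours and grown 7 days at 30°C on medium lacking adenine and uracil.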

Substance	amyloid nucleation score
HVTSVMIFIIASIMYVEIKY	0.339 ± 0.34
HVYMGSFVPR	inactive
HWCVPL	inactive
HWCYRSFMTPAPPNLLPQPQ	inactive
HWGWVTSIESVVRRFCNNFC	inactive
HWIISYQAGCFHLNTFKIMY	inactive
HYQHVFLAFNSVLQSPILRE	inactive
HYRDFPSRN	inactive
HYVKPSSESRR	inactive
HYYINNTWMFKVYNRLLKRR	2.51 ± 0.057
IAAPRGMTDSRVVMRCLHVN	inactive
IALKGRAFAHEGCLRGRRGG	inactive
IALVMSIDVAVVLMYPSPQW	0.381 ± 0.24
IAQILDVQFSVHAIGVSRDM	inactive
ICDHVYVGNFLTQA	inactive
ICELLRFDPMLTCFRM	0.77 ± 0.2
ICGRTYVRVT	-0.775 ± 1.1
ICLDKITDAIYMDYNRAFSC	inactive
ICLYLRQVKLIAGAERKKVQ	inactive
ICMYRRLRISCVLAYRFRHF	inactive
ICPWDIQRINMLMGRVDWLR	inactive
ICQWDVKMPRCATG	inactive
ICTPENT	-0.303 ± 0.9
ICYSNDSLYMLLESS	inactive

Substance	amyloid nucleation score
IDELLSLQLHRIHKLLEMHG	inactive
IDGSYAFSKKPDPNSVKYIM	inactive
IDLRVTRNIFQSATLLMFFW	inactive
IDRLLLNTKYIVQGLPNWTK	inactive
IDWLKRVVEVTSVEGAYCWW	inactive
IERSNFLQCPVRGLRNTARV	0.526 ± 0.26
IEVGYITWKSARVWATNSSH	inactive
IEVKDSVGVRCFYTYSPTCQ	inactive
IEVYYSNRSWCLRQIRGCTG	inactive
IFLKNCLLWKTAGSFMNSIA	inactive
IFNWPSQTVLHIYKSAHVNM	2.35 ± 0.066
IFPFFVSL	inactive
IFRSHMQSLGK	inactive
IFSRLGFVCLIMFTC	inactive
IFTLMINCLE	0.809 ± 0.1
IFVILW	0.101 ± 0.6
IFVVYFGISTIRNT	1.32 ± 0.097
IGAIYACRLFVRGLASFLTL	inactive
IGDNCCIWMLDVHSVTLVSE	0.329 ± 0.2
IGEILIVFALTRNTVVGYGF	inactive
IGFRWY	inactive
IGGRTDNSELTCTRGMRFLC	inactive
IGINVRALRRGLTLVPL	inactive
IGISSGVTKICYGGTFKHMP	inactive

Substance	amyloid nucleation score
IGNLLLGCRPSQNSLRAHTS	inactive
IGRMKRSIGRCDPVWWNWVQ	inactive
IGRTLSHSATRLVCTDPFRR	inactive
IGSSRIDFSSRNYGV	0.576 ± 0.12
IHDDSKNGK	0.57 ± 0.16
IHHQC	inactive
IHLVFREDITLVWVWNWIHV	inactive
IHTGKMLTYCFKSNLSVRTS	inactive
IIELYT	inactive
IIGPGYFFYLKLYA	0.549 ± 0.27
IIISSFSDWCYFGRDDSCRM	-0.36 ± 0.63
IILVSYVREMKHSSSSFVLS	2.04 ± 0.098
IIMGV	inactive
IIMSLLIALP	0.653 ± 0.18
IIPYCRS	inactive
IIPYHEFIVGALVSHRWCQD	inactive
IIVSRWLWWDIGVSRNW	inactive
IIWLWGNNGKYTMGFLGIGG	inactive
IIYFRVISIGYSWGIVRDRF	inactive
IKAPRFYAPFLLIVSQWVST	inactive
IKDIFACSMCFTTKSNAAHY	3 ± 0.053
IKFIERWYQFTYVHCLQVMG	-0.247 ± 0.64
IKKHCV	inactive
IKRGRTVQKVFCMWVVSYPR	inactive

Substance	amyloid nucleation score
IKVISLEAMKTYCF	inactive
ILDAEVFGLISGFMSMHCNA	inactive
ILENVA	inactive
ILEVGRQCMDGFCSKFNGEY	inactive
ILFRYFISGMVVWGDNMENE	inactive
ILFVAGIETFSALSFRWTGV	inactive
ILINSRFMRFVFRAGHRV	inactive
ILISMEPPLFRDTLKNTGNC	inactive
ILLVWNSMLYYTLDTCVNCC	inactive
ILQKSDVSII	inactive
ILRLSPTFGRQSYSVKVGLK	inactive
ILRNMDGRRNSVVRDVVRVK	inactive
ILTNTIRGKVDSLRLFKTSW	inactive
ILTWRRFVFFLDWVDFTSQG	inactive
ILVDWFDCDQCKQTFCPGLV	inactive
ILYGKVTKKRGSKALSVRVM	inactive
ILYLITFAELCWKSRHWHLG	inactive
IMSRCISTHLG	inactive
INFCIINNTMV	1.75 ± 0.071
INKSWGVFP	0.687 ± 0.18
INLNYDLKFGYVYHMLFT	inactive
INNASRRPCNMHVDVYRLLR	inactive
INPRSYADLYYIRFNHWWLL	inactive
INQRLYEPFGRWVWTRYIAR	inactive

Substance	amyloid nucleation score
INWFGVRYRYDSSNYFMYQL	0.986 ± 0.21
INWTRLRSRSEVWDTGRVWT	inactive
INYCALARFLMNECLCPICT	inactive
IPCMG	inactive
IPRWKFN	-0.57 ± 1.1
IPTSQAEFCCFSGAKHFQIV	inactive
IPVLLPSMCINNKFMVSSWN	1.39 ± 0.1
IPYSTHRINSILISLSWFCV	0.691 ± 0.2
IQKLSFYTVCFMYDWLLTFK	inactive
IQLAYIPEMALPTSWARVSG	inactive
IQLKDKNGDL	inactive
IQNIVRLDSVVSMVFGRLVI	inactive
IQQGKVYKGTLLLTAYMTSE	1.11 ± 0.096
IRCNRYVSL	inactive
IRGEFLQQPFIVDRNHVRWL	inactive
IRGSHGRWYSTHNCLTCDME	inactive
IRGVECNRLGIYLLCVTHSM	-0.624 ± 0.8
IRLSQNWGSYVCSNTLNSER	inactive
IRLVPWFW	inactive
IRMYNSSERFYSPDKRHVPK	inactive
IRNIRFVFLILIDWSSRNSV	inactive
